Results on 55 molecules are retold here after publication PMC314469, “Protein Interaction Networks by Proteome Peptide Scanning” (PLoS Biology, 2004).

Sequences and labels used below:
B1: 249-262 Hypothetical ORF (peptide)
chain: DYQPLSPPRELDPD
B2: 51-64 Product of gene unknown (peptide)
chain: EMIPSSPQRKSVSN
B3: 158-171 putative methylenetetrahydrofolate reductase (mthfr) (peptide)
chain: ESHPELPNKDVKLD
B4: 276-289 involved in cell wall biogenesis (peptide)
chain: ELDPISPLKVPLTA
B5: 311-324 3-phosphoglycerate dehydrogenase (peptide)
chain: DVYPHEPAKNGEGS
B6: 597-610 component of vacuolar membrane protein complex (peptide)
chain: EIAPLIPKKPALRK
B7: 164-177 Homolog of mammalian 14-3-3 proteins;member of conserved eukaryotic 14-3-3 gene family (peptide)
chain: ELPPTHPIRLGLAL
B8: 237-250 Hypothetical ORF (peptide)
chain: DELPSPPLRMVHID
B9: 471-484 Hypothetical ORF (peptide)
chain: FISPHLPMKGRLVL
B10: 74-87 Hypothetical ORF (peptide)
chain: FSHPLSPLKSNFID
B11: 88-101 HMG1-box containing protein (peptide)
chain: ERDPNMPKRPTNAY
B12: 375-388 transcription factor (peptide)
chain: FPDPNNPSKVQIRM
B13: 158-171 homologous to mouse and human Tsg101 tumor susceptibility genes (peptide)
chain: DQAPSLPPKPNTQL
B14: 122-135 Hypothetical ORF (peptide)
chain: DVLPAGPVRSLEGA
B15: 109-122 scaffold protein for MAP kinase cascade (peptide)
chain: DYLPQHPHRTSSLP
B16: 53-66 "glucose repression protein, a component of the Snf1 complex" (peptide)
chain: ELEPQHPLRHKSSL
B17: 186-199 Hypothetical ORF (peptide)
chain: DLPPKFPEKPVHLV
B18: 505-518 Actin binding protein (peptide)
chain: EAAPQLPSRSSAAP
B19: 549-562 Arf-binding protein (peptide)
chain: ENAPANPSKALKVK
B20: 687-700 putative serine/threonine kinase (peptide)
chain: EVSPVEPKRTENER
B21: 528-541 Ubiquitin-specific protease (peptide)
chain: EIPPPLPPKIMVHS
B22: 112-125 Hypothetical ORF (peptide)
chain: FFHPAIPLKNAAPF
B23: 490-503 Amino acid permease (peptide)
chain: DSLPKLPFRSWGQP
B24: 526-539 " Putative integral membrane protein containing novel cysteine motif. Similarity to SLG1 (WSC1), WSC2 and WSC3" (peptide)
chain: FHDPILPRRTSTFL
B25: 638-651 transcription factor (peptide)
chain: ENFPIVPLKSVAQD
B26: 41-54 Putative helicase similar to RAD54 (peptide)
chain: ENKPFKPPRRVGSN
B27: 1359-1372 negative regulator of early meiotic gene expression (peptide)
chain: ETVPTEPTRYNYQN
B28: 1313-1326 component of the mitotic spindle (peptide)
chain: DDTPSIPSKISSKS
B29: 382-395 Transcription factor (fork head domain) (peptide)
chain: DPLPYSPLKLYDQK
B30: 356-369 mitochondrial protein; (putative) chaperone (peptide)
chain: EYSPLVPSKMSADK
B31: 81-94 Hypothetical ORF (peptide)
chain: ENVPLYPSRRNIWE
B32: 619-632 " contains 3 SH3 domains, interacts with Bee1p" (peptide)
chain: ELPPIKPPRPTSTT
B33: 250-263 Hypothetical ORF (peptide)
chain: SREPEVPQRLLTLI
B34: 149-162 Hypothetical ORF (peptide)
chain: DERPFRPKRTSRSA
B35: 196-209 Product of gene unknown (peptide)
chain: FDFPLSPVKHENPT
B36: 350-363 Hypothetical ORF (peptide)
chain: DESPIDPSKAPKVP
B37: 301-314 ubiquitin carboxyl-terminal hydrolase (peptide)
chain: DRPPDVPRKIIVGR
B38: 216-229 acetyl CoA hydrolase (peptide)
chain: DSIPVDPEKVVAIV
B39: 587-600 Hypothetical ORF (peptide)
chain: FLPPPKPFRHTETK
B40: 783-796 Hypothetical ORF (peptide)
chain: EANPDNPKKLDLKA
B41: 139-152 Hypothetical ORF (peptide)
chain: DSLPFAPLRKVYEL
B42: 100-113 35 kDa protein belonging to the high mobility group (HMG) fanily of proteins (peptide)
chain: ERDPNAPKKPLTVF
B43: 591-604 Hypothetical ORF (peptide)
chain: EYFPISPEKKEEME
B44: 82-95 50-kDa subunit of ORC (peptide)
chain: DSIPLEPKKAKHLM
B45: 805-818 " contains 3 SH3 domains, interacts with Bee1p" (peptide)
chain: DLQPLEPKKAAAST
B46: 629-642 MCM3 protein homolog (S. cerevisiae) (peptide)
chain: DFTPVEPSKMREYI
B47: 81-94 transcription factor (peptide)
chain: EHKPVSPDKIGTFT
B48: 234-247 Hypothetical ORF (peptide)
chain: EYHPIKPLRSSSST
B49: 51-64 Involved in protecting the cell against bleomycin damage (peptide)
chain: DGRPHSPLRARSAT
B50: 808-821 involved in bud site selection (peptide)
chain: EILPVKPTKKSSKK
B51: 471-484 Actin binding protein (peptide)
chain: EIAPSLPSRNSIPA
B52: 73-86 Homeobox-domain containing transcription fractor which is a positive regulator of PHO5 and other genes. (peptide)
chain: DSGPQRPKRTRAKG
B53: 379-392 Hypothetical ORF (peptide)
chain: EILPQAPAKKVFES
B54: 274-287 Mitochondrial ribosomal protein MRPL35 (YmL35) (peptide)
chain: DYLPPVPEKNAGKQ
B55: 90-103 uridine permease (peptide)
chain: DHKPENPIRTFKDL

In this test the target is Sho1 SH3 (SHO1_YEAST), P40073. The test is described as follows: SPOT array.
Chain of Sho1 SH3 (SHO1_YEAST), P40073 (P40073 295-366): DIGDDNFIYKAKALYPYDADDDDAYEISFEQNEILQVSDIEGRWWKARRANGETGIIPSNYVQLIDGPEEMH
B1 had a normalised SPOT signal, Boehringer light units (BLU); mean over the file's lines of this peptide of 75.3. The same measure for B2: 164. The same measure for B3: 53.7; for B4: 127; for B5: 132. The same measure for B6: 183. As for B7, the normalised SPOT signal, Boehringer light units (BLU); mean over the file's lines of this peptide turned out to be 161. Under B8 stands 224; under B9, 441; under B10, 164. Under B11 stands 83.8. B12 had a normalised SPOT signal, Boehringer light units (BLU); mean over the file's lines of this peptide of 166.

B13 registered a normalised SPOT signal, Boehringer light units (BLU); mean over the file's lines of this peptide of 176.

For B14, the normalised SPOT signal, Boehringer light units (BLU); mean over the file's lines of this peptide came out at 115. B15 came in with a normalised SPOT signal, Boehringer light units (BLU); mean over the file's lines of this peptide of 87.8. In turn, B16 registered a normalised SPOT signal, Boehringer light units (BLU); mean over the file's lines of this peptide of 102.

The molecule B17 came in with a normalised SPOT signal, Boehringer light units (BLU); mean over the file's lines of this peptide of 65.8. Under B18 stands 86.7.

Molecule B19 came in with a normalised SPOT signal, Boehringer light units (BLU); mean over the file's lines of this peptide of 69.7.

Consider B20, for which the normalised SPOT signal, Boehringer light units (BLU); mean over the file's lines of this peptide was found to be 182.

B21 displayed a normalised SPOT signal, Boehringer light units (BLU); mean over the file's lines of this peptide of 5100.

B22 gave a normalised SPOT signal, Boehringer light units (BLU); mean over the file's lines of this peptide of 162. For B23, the normalised SPOT signal, Boehringer light units (BLU); mean over the file's lines of this peptide was found to be 333. The same measure for B24: 275.

B25 showed a normalised SPOT signal, Boehringer light units (BLU); mean over the file's lines of this peptide of 45.8. The same measure for B26: 164. The same measure for B27: 32.8; for B28: 207.

Molecule B29 displayed a normalised SPOT signal, Boehringer light units (BLU); mean over the file's lines of this peptide of 144. B30 came in with a normalised SPOT signal, Boehringer light units (BLU); mean over the file's lines of this peptide of 183. In turn, B31 had a normalised SPOT signal, Boehringer light units (BLU); mean over the file's lines of this peptide of 178. The molecule B32 displayed a normalised SPOT signal, Boehringer light units (BLU); mean over the file's lines of this peptide of 102. Under B33 stands 105; under B34, 183. Under B35 stands 27.7. As for B36, the normalised SPOT signal, Boehringer light units (BLU); mean over the file's lines of this peptide stood at 96.8. Under B37 stands 477.

The molecule B38 returned a normalised SPOT signal, Boehringer light units (BLU); mean over the file's lines of this peptide of 91.

With B39, the normalised SPOT signal, Boehringer light units (BLU); mean over the file's lines of this peptide came out at 483. On to B40, for which the normalised SPOT signal, Boehringer light units (BLU); mean over the file's lines of this peptide stood at 130.

Take B41: the normalised SPOT signal, Boehringer light units (BLU); mean over the file's lines of this peptide came to 96.8.

B42 had a normalised SPOT signal, Boehringer light units (BLU); mean over the file's lines of this peptide of 157. B43: the normalised SPOT signal, Boehringer light units (BLU); mean over the file's lines of this peptide was 56.7. Molecule B44 returned a normalised SPOT signal, Boehringer light units (BLU); mean over the file's lines of this peptide of 133.

On to B45, for which the normalised SPOT signal, Boehringer light units (BLU); mean over the file's lines of this peptide was 220. B46 registered a normalised SPOT signal, Boehringer light units (BLU); mean over the file's lines of this peptide of 91. Molecule B47 returned a normalised SPOT signal, Boehringer light units (BLU); mean over the file's lines of this peptide of 0. Under B48 stands 105; under B49, 37.1; under B50, 281. Under B51 stands 163; under B52, 202; under B53, 132.

Consider B54, for which the normalised SPOT signal, Boehringer light units (BLU); mean over the file's lines of this peptide turned out to be 224. The same measure for B55: 168.
